The data set addresses T1, MazE (E. coli), MazE from Escherichia coli with His-Tag and Myc-Tag at the N-terminal end.
T1 chain: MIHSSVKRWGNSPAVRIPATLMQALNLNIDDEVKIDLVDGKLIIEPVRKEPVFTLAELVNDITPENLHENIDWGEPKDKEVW

B1: MazF (E. coli), N-terminally His-Tagged MazF from Escherichia coli (protein)
chain: MVSRYVPDMGDLIWVDFDPTKGSEQAGHRPAVVLSPFMYNNKTGMCLCVPCTTQSKGYPFEVVLSGQERDGVALADQVKSIAWRARGATKKGTVAPEELQLIKAKINVLIG
Regarding B1, the “degradation of the substrate MazG30 by the ribonuclease activity of MazF (E. coli), gel electrophoresis” value was “When MazE and MazF were added to the substrate MazG30, degradation of the substrate MazG30 was inhibited and the band at the position corresponding to a 14mer polypeptide was decreased”.

(Values after patent US20110028697.)
